Experimental data from article PMC13100509, “A milestone in C4 carbon concentration mechanism evolution: structural remodeling of NADP-malic enzyme in Poaceae” (Molecular Biology and Evolution, 2026).
Several values for one entry are separate records, joined by “and”; a condition that tells them apart may be missing. Equal values may be shown once.

What was measured:
[1] = target: nonC4I148F mutant of maize nonC4-NADP-ME (maize (Zea mays)); test: native gel or EMSA; native PAGE (6% or 7%) of purified recombinant proteins, 100 V, 4 °C; Coomassie staining or in-gel NADP-ME activity assay; oligomeric state from mobility against native markers
[2] = target: maize nonC4-NADP-malic enzyme, recombinant wild type (maize (Zea mays)); test: AUC; sedimentation velocity of recombinant proteins; 20 mM Tris-HCl pH 7.0 or 8.0, 5 mM MgCl2; 1.1 mg/ml (16 uM); 20 °C, 35,000 rpm; c(s) model in SEDFIT; self-association, dimers and tetramers
[3] = target: maize nonC4-NADP-malic enzyme, recombinant wild type (maize (Zea mays)); test: cryo-EM structure; single-particle cryo-EM of His-tagged proteins, 0.2 to 0.5 mg/ml, 20 mM Tris-HCl, 5 mM MgCl2, 40 mM pyruvate, 2 mM NADP, pH 8.0; oligomeric state from the numbers of particles
[4] = target: maize nonC4-NADP-malic enzyme, recombinant wild type (maize (Zea mays)); test: native gel or EMSA; native PAGE (6% or 7%) of purified recombinant proteins, 100 V, 4 °C; Coomassie staining or in-gel NADP-ME activity assay; oligomeric state from mobility against native markers
[5] = target: maize nonC4-NADP-malic enzyme, recombinant wild type (maize (Zea mays)); test: as above; remark: listed apart in the source
[6] = target: nonC4R208G mutant of maize nonC4-NADP-ME (maize (Zea mays)); test: as above
[7] = target: Cyt1-NADP-ME from maize extracts (maize (endogenous in maize etiolated leaves and roots)); test: native gel or EMSA; native PAGE (7%) of maize extracts of etiolated leaves and roots; in-gel NADP-ME activity assay, active bands excised and identified by mass spectrometry; mobility compared with the recombinant proteins
[8] = target: nonC4Δ15 with R171T (maize (Zea mays)); test: native gel or EMSA; native PAGE (6% or 7%) of purified recombinant proteins, 100 V, 4 °C; Coomassie staining or in-gel NADP-ME activity assay; oligomeric state from mobility against native markers
[9] = target: nonC4Δ15 with N172D (maize (Zea mays)); test: as above
[10] = target: Cyt2-NADP-ME from maize extracts (maize (endogenous in maize etiolated leaves and roots)); test: native gel or EMSA; native PAGE (7%) of maize extracts of etiolated leaves and roots; in-gel NADP-ME activity assay, active bands excised and identified by mass spectrometry; mobility compared with the recombinant proteins
[11] = target: nonC4Δ15 with I148F (maize (Zea mays)); test: native gel or EMSA; native PAGE (6% or 7%) of purified recombinant proteins, 100 V, 4 °C; Coomassie staining or in-gel NADP-ME activity assay; oligomeric state from mobility against native markers
[12] = target: nonC4Δ15 with R208G (maize (Zea mays)); test: as above
[13] = target: the molecule itself; test: AUC; sedimentation velocity of recombinant proteins; 20 mM Tris-HCl pH 7.0 or 8.0, 5 mM MgCl2; 1.1 mg/ml (16 uM); 20 °C, 35,000 rpm; c(s) model in SEDFIT; self-association, dimers and tetramers
[14] = target: the molecule itself; test: native gel or EMSA; native PAGE (7%) of maize extracts of etiolated leaves and roots; in-gel NADP-ME activity assay, active bands excised and identified by mass spectrometry; mobility compared with the recombinant proteins

nonC4I148F mutant of maize nonC4-NADP-ME (enzyme)
stoichiometry N [1]: 2

maize nonC4-NADP-malic enzyme, recombinant wild type
stoichiometry N [2]: 2 and 4
percent tetramers [3]: 10%
stoichiometry N [3]: 2
stoichiometry N [4]: 2
stoichiometry N [5]: 4

nonC4R208G mutant of maize nonC4-NADP-ME (enzyme)
stoichiometry N [6]: 4

Cyt1-NADP-ME from maize extracts (enzyme)
stoichiometry N [7]: 4

nonC4Δ15 with R171T (enzyme)
stoichiometry N [8]: 4 and 2

nonC4Δ15 with N172D (enzyme)
stoichiometry N [9]: 4

Cyt2-NADP-ME from maize extracts (enzyme)
stoichiometry N [10]: 4

nonC4Δ15 with I148F (enzyme)
stoichiometry N [11]: 4 and 2

nonC4Δ15 with R208G (enzyme)
stoichiometry N [12]: 4

B1: maize C4-NADP-malic enzyme, recombinant wild type (enzyme, maize (Zea mays), UniProt P16243 63-636, looked up)
chain: MVSNAETETEKEQEEAAAASEELPVMPWATSVASGYTLLRDPHHNKGLAFTEEERDGHYLRGLLPPAVLSQELQIKKFMNTLRQYQTPLQRYIAMMNLQETDERLFYKLLIDNVVELLPFVYTPTVGEACQKYGSIFGRPQGLYVSLKDKGKVLEVLRNWPHRNIQVICVTDGERILGLGDLGCQGMGIPVGKLALYTALGGVDPSVCLPITIDVGTNNEFLLNDEFYIGLRQKRATGEEYDELIEEFMSAVKQFYGEKVLIQFEDFANHNAFDLLEKYSKSHLVFNDDIQGTASVVLAGLLAALKMVGGTLAEQTYLFLGAGEAGTGIAELIALEISKQTNAPIEECRKKVWLVDSKGLIVDSRKGSLQPFKKPWAHEHEPLKTLYDAVQSIKPTVLIGTSGVGRTFTKEIIEAMSSFNERPIIFSLSNPTSHSECTAEQAYTWSQGRSIFASGSPFAPVEYEGKTFVPGQSNNAYIFPGLGLGLVISGAVRVHEDMLLAASKALADQATQDNFEKGSIFPPFTSIRKISAHIAAAVAGKAYELGLATRLPPPSDLVKYAENCMYTPVYRNYR
notes: C4-NADP-malic enzyme (ZmC4-NADP-ME), plastidic C4 isoform of maize; construct of Alvarez et al. 2019; Vector pET16b::ZmC4-NADP-ME (Alvarez et al. 2019); also called C4-NADP-ME; ZmC4-NADP-ME; source: E. coli Rosetta2 (DE3) or ArcticExpress (DE3), purified (Ni-NTA)
stoichiometry N [13]: 4

B2: C4-NADP-ME from maize extracts (enzyme, UniProt P16243 63-636, looked up)
chain: B1 chain
notes: C4-NADP-malic enzyme, plastidic C4 isoform of maize, identified by mass spectrometry in an active band of a native gel; source: endogenous, extracts of maize etiolated leaves and roots
stoichiometry N [14]: 4
